According to the DeepSol protein solubility set:

Assay: soluble on expression in E. coli; label from the status in PepcDB or PDB records

| Sequence | soluble on expression in E. coli |
| --- | --- |
| MSGFYNRGKMKFIHAADIHLGNPISGIDRKINLPEEVKKQIALATFTAFSNVIKLAVDRHVDFVLFPGDLFDSSQQSAYLYNFLNQQFQNLKEAGIEAFISFGNHDFQSDVENDFIWPENVHAFPKSKAKTFFHDSWDGKRVAITGTSFVVRNPRESLVPLYPSRDQSATYQIGMYHGSQGNSSANNYAPFSVGDLQALNYDYWALGHIHVRQVLSKNPAIVYSGDPQGLDLTETGEKGVYFVSDENDQGGLTAEFVPCSSFVFDSFELSINDQSAISNISDLIVQELLSFNHKKMSLNAIRVNLSASLPEKILDQLTDTSFLDLVNSKTIREKQFLIKMDLNVDQKKDNFNQLEERYWQAAKNDVFDEQSFNQALLRTFNSNQQFVIRHFTDPNVQAKLMSKAEQIISERIS | not soluble |
| MSLANGVWSLQPLADMSAAEFRDWQVLLENRTGVVLNEQRRTFLQTSLTARMRELGIGDYHSYYRQVTDGPRGAVEWAILLDRLTVQETRFFRHPPSFELLERYLGERLGREGMPRPWALWSVGCSSGEEPYSMAMCAAQALRGWQRGDFFGVTGTDISLHALQRARAANYPARKLEQLPAEMVERYCERQADGSFSVKTILTGRVCCARLNVLDLAKAPWSGMDVIFCQNLLIYFRRWRRREILNRLAERLAPGGLLVIGVGEVVDWSHPELEPVADERVLAFTRKGEGHHHHHH | soluble |
| GKTVSVFGETCATPVGPAAGPHTQLAQNIVTSWLTGGRFIELKTVQILDRLELEKPCIDAEDECFNTEWSTEFTLLKAWDEYLKAWFALHLLEAMFQPSDSGKSFIFNMSVGYNLEGIKQPPMQQFIDNMMDASDHPKFAQYRDALNKLLQNEAFLARHGLQEKRESLQALPARIPTSMVQGVTLSTMHGCPPHEIEAICRYMLEEKGLNTFVKLNPTLLGYARVREILDVCGFGYIGLKEESFDHDLKLTQALEMLERLMALAKEKSLGFGVKLTNTLGTINNKGALPGEEMYMSGRALFPLSINVAAVLSRAFDGKLPISYSGG | not soluble |
| MGSDKIHHHHHHMAPDTSMSSRDALPPLACLRAFEAAARHASFTQAGSELHLTQSAVSRQIKRLEDDLGRPLFERHYEGLRLTPAGERYFGVVQRLLRDLRDETARLRRRGDDRQLTLASSPTIASIWLARQLPDFQRAHPHIEIRILTVEDPHRLDLAEFDLGIYYHVPHEVDPPGLDAEAIFSHEEVAAVCSPAYLARHGDIRDADDLLARHTLMVVEDHYHDWLTWEGWYQAQNLAWRTPEHSLRANSFQLLMNAILAGQGVTLGWTRLLAADLAQHNLVQALPHTLPSRGRLSLLTPQHRHLTEPMRAFRAWVLGPA | not soluble |
| MGSDKIHHHHHHMRWNRMNPFGSYKKVVSARSTLKEVLKKAQDGGIVSTAFIYGLENNLLDGVIVADNAGEFKAVPKVATTPEEVLEAAGTKYTVCPNISVLKSAVREYGCEKIGVVGTPCQVRAVRKLMKYPVGFRHVPDKIALIIGIFCMENFPYYGLKLIVEEHCGVKMEDVVKMDIGKGKFWVYTRWGETKAIKLKETHPYEQIACHVCTDYTAELADISTGSVGSPDGWSTVFIRTAKGEEIFNKMVEDGYLEVKPIEEVKPGLGLVEKLALQKKEKNMKEIEHRKELGLPIPY | not soluble |
| MARTVFCEYLKKEAEGLDFQLYPGELGKRIFDSVSKQAWGEWIKKQTMLVNEKKLNMMNAEHRKLLEQEMVNFLFEGKDVHIEGYVPPSN | not soluble |
| MQSIEHFEPQFLSFIQKEMVQDLAHDINHVLRVVSMAKRLCVEEKGKEAVVIPAAYLHDCFSFAKDHSNRSQSSAFAADKALVFLKEIGYPSEYYDEIHHAIVAHSFSAKVETRTLEAKIVQDADRLDALGAIGIARCLQVSTKLNSPLYSIDDPFCYHREPNDKAYTIDHFYAKLLTLANTMKTTSAVAEAEKRTQYMRDYLTQLESELLEHHHHHH | soluble |
| MSVKPVDLNKLRSTHENLYETVVAISKKAREIQEEERAELEERLLPYKEMIRNPASESESEKVFPEQIAISVAFECREKPTQQALAQYLDHQYDYVLEKSPETKVAQNEDEDESDRD | not soluble |
| MSLTISDVPTQTLPAEGEIGLIDVGSLQLESGAVIDDVCIAVQRWGKLSPARDNVVVVLHALTGDSHITGPAGPGHPTPGWWDGVAGPGAPIDTTRWCAVATNVLGGCRGSTGPSSLARDGKPWGSRFPLISIRDQVQADVAALAALGITEVAAVVGGSMGGARALEWVVGYPDRVRAGLLLAVGARATADQIGTQTTQIAAIKADPDWQSGDYHETGRAPDAGLRLARRFAHLTYRGEIELDTRFANHNQGNEDPTAGGRYAVQSYLEHQGDKLLSRFDAGSYVILTEALNSHDVGRGRGGVSAALRACPVPVVVGGITSDRLYPLRLQQELADLLPGCAGLRVVESVYGHDGFLVETEAVGELIRQTLGLADREGACREGHHHHHH | not soluble |
| MAGTTTYELIDYLEGKDILVVSNGLSHIDTLIQKNIKCYVIGGNIKISTKAITGCDALMCLSKFRFDKCFIGANGVHHTYGLTTPDTEEAILKECAINNSRKAYVLADDSKFGEISTIKFSDINKCVIITNEKPKDNTYDKKTDIKVVDILEHHHHHH | not soluble |
| MGSDKIHHHHHHDQEPPLYVNENDIFTSPTRIEATLNGLYAAIKNTGTKSLMGGKSYLVFDNRGDDVINISNNLVTLFNTYNMNVGITDAENADTWTYAYLAINKVNTFLQSLEGAREVAGENYDRYVQEAKFVRALAYYYLNNLYPTPYSVNPDAKSVPLRLTAEAGTENNNMPRSTVKQIYEHILSDLENISALDTEVNTYTGVTHATQAAANMLKMRVYMAMNEWDKAITAGELVTGYSLPEDVTLIYKAPYFSQESIFSLPMADTNIPNTQQSLAEYYYDGKIMLIDTKSGIMSKPDYSLATDKRIIAFKGEKDLLMKFTDAKTKLQWVPIFRYAETLLDLAECYANKAGGEATAKSLLKQVRGRSVDAATDPLNIDNLSGDALKEAIYNEKRLEFIGEGIRGIDIMRRGEHFIKVGENETINVGPSDEKYTWPIPQVELLLNKDINK | not soluble |
| MGSDKIHHHHHHMEKDKKIPAKIYPFYPNGQFYFERGVEAFRDQRIKEAIRYLVRASELEPGEAVILCQLAICYTEIGQFHKSNQLLREVLEQRNGNMEYCYYFIANNFAYMKDYRRALQYANRYLDSSTDGEYTEEAKDLIEVLLEETPFGETIENGFSKLEQEFYSYKKEINRYLAEEDSASACDILRKVIDEKPNFWPAYNQLASLYFEQLKEEEGVRVLSDLLSRNPGNLLGICDLFIYHFYKGNRKEADELYLELRDVLPVLAHHKEKLGLIHAMMGEYEEADDLLEQVADLEVTERSKYYYFRAKSSYYLGDVEGAKMFWHSFLECDLYEDVRFPWEQEPDLTNDTRLVLEMLQEEDDLTHMLGVYALTISGNRPELVLFHPLLDMSDWSYMEHLMFTNFDYFPDGAIEQNGYLIAKAMIILKENGILLNEEYMALYKQMFSLVLIDAGKDLILGRYTIETVASAIAKLFLPHLKLQLVEEFECSKCARDIERVLSR | not soluble |
| MKERMQKTSAQAHDFPQRARTESEWYEGVQTFMWMTEDNIVEVPFDKEHLLEIILSPSNLNKAYKAVVRNNGSGGIDKMSCEQLLSWLKANKDELIISLQSGTYRPNPVRRVEIPKDNGKKRLLGIPTVVDRLVQQAINQVLTLIYERQFSKTSYGFRPQRGCHDALRKAQKIVSEGYIYVVDLDLERFFDTVSHSKLIEILSRTIKDGRVISLIHKYLRSGVINRGMFEMSTEGTPQGGPLSPLLSNIMLNELDKELERRGHPFVRYADDAMIFCKSKRAAKRVRESITLFIEGKLFLKVNHEKTVVSYVKGVKFLGYSFYVKKGDCILLVHSKSKNKMKSKLKELTSRSNGWGYEKRKQKLKDYIRGWIAYFCLAQMKRLCIETDEWLRRRIRMCIWKSWKNAKTRVANLKKCGVSEWQAYQWGNTRLGYWRVSNSPIVTFVMSNDKLRKAGYMEFMDCYLKWCPK | not soluble |
| MGHHHHHHSHMATNAKPVYKRILLKLSGEALQGTEGFGIDASILDRMAQEIKELVELGIQVGVVIGGGNLFRGAGLAKAGMNRVVGDHMGMLATVMNGLAMRDALHRAYVNARLMSAIPLNGVCDSYSWAEAISLLRNNRVVILSAGTGNPFFTTDSAACLRGIEIEADVVLKATKVDGVFTADPAKDPTATMYEQLTYSEVLEKELKVMDLAAFTLARDHKLPIRVFNMNKPGALRRVVMGEKEGTLITE | soluble |
